Drawing on paper PMC7005868, this text covers loss of the ability to bind CD63 against full-length TIMP-1 for one substance.

This assay concerns the target CD63-GLucC (CD63 truncated at Val206 fused to the C-terminal fragment of Gaussia luciferase) (UniProt P08962). As to the kind of experiment: split reporter (BiFC, NanoBiT); Gaussia luciferase protein complementation assay (PCA); GLucN and GLucC fusion plasmids co-transfected 1:1 into HEK293FT; membranes disrupted by two freeze-thaw cycles; luminescence with 10 uM coelenterazine.
Sequence of UniProt P08962 (P08962 1-206): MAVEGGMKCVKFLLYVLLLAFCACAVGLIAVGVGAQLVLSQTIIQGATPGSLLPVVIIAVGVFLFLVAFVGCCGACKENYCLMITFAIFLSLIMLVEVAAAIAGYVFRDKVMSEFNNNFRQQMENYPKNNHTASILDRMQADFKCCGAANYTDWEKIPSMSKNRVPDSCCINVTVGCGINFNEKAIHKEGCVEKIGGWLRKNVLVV

In turn, “GLucN-T1ΔC (TIMP-1 truncated after L168) (domain or fragment)” had a loss of the ability to bind CD63 against full-length TIMP-1 of 83%.
